Broadly, the Km is the concentration of substrate that gives half-maximal velocity.

What all share (assay): HPLC product assay, yeast microsomes, Eadie-Hofstee plot
Common to all, as to format: biochemical, Lupinus albus

Substrate in data set [1]: O=c1c(O)c(-c2ccc(O)c(O)c2)oc2cc(O)cc(O)c12
Conditions: co-substrate DMAPP, 10 mM Mg2+, MOPS pH 7.0, 30°C.

Substrate in data set [2]: COc1ccc(-c2oc3cc(O)cc(O)c3c(=O)c2O)cc1
As to conditions: co-substrate DMAPP, 10 mM Mg2+, MOPS pH 7.0, 30°C.

Substrate in data set [3]: O=c1c(O)c(-c2ccccc2)oc2cc(O)cc(O)c12
As to conditions: co-substrate DMAPP, 10 mM Mg2+, MOPS pH 7.0, 30°C.

Substrate in data set [4]: CC(C)=CCOP(=O)(O)OP(=O)(O)O
Conditions: co-substrate 400 μM kaempferol, 10 mM Mg2+, MOPS pH 7.0, 30°C.

Substrate in data set [5]: O=c1c(O)c(-c2ccc(O)c(O)c2)oc2cc(O)ccc12
Conditions: co-substrate DMAPP, 10 mM Mg2+, MOPS pH 7.0, 30°C.

Substrate in data set [6]: O=c1c(O)c(-c2ccc(O)cc2O)oc2cc(O)cc(O)c12
Conditions: co-substrate DMAPP, 10 mM Mg2+, MOPS pH 7.0, 30°C.

Substrate in data set [7]: O=c1c(O)c(-c2ccc(O)cc2)oc2cc(O)cc(O)c12
As to conditions: co-substrate DMAPP, 10 mM Mg2+, MOPS pH 7.0, 30°C.

Substrate in data set [8]: O=C1c2c(O)cc(O)cc2O[C@H](c2ccc(O)cc2)[C@H]1O
Conditions: co-substrate DMAPP, 10 mM Mg2+, MOPS pH 7.0, 30°C.

B1: LaPT2 (Lupinus albus) (protein)
chain: MGFVLAATSFPKAPSFTSGRSSWNSKEYTKNYYASSHVTTLWHKTGIIQKEPCFMMAWPQNLKLHCKVKGGDKRNYVMNAASGKSNEYETQDLDQRNNWGTLINALHVFFKFIRPTATLSLLLGATLTTLIAVEKLSDISAAYFIGLLQVMVVSSCMQVFMAGLNQLYDVEIDKINKPYLPLVSGELPFKNGVIIVATTFILGHLFPLIIGSGPLFWSFVFSSSLAIAYCADLPLLRWKRHSALTALNYIIDLGGVKPLGYVLHMQTYVFKRPPTFSRPLIFCMAMSSVFAIIIAIFKDITDMEGDEKFGIKSLSLHLGKKPVFWICVSLLQMAYVVAILMGTLSPFLWVKIAMGLGHGILASLVSYYANSVDLKSNPAIQSFYMFIWKLLTVEYFLIPLFR
notes: open reading frame in pDR196GW, yeast W303A1 microsomal fraction; contig deduced as 407 aa (GFP construct named 88-403); predicted 87-aa transit peptide, no truncation stated for the assay
B1: the Km in data set [1] was 102.81 ± 6.41 µM; in data set [2] it was 115.19 ± 34.25 µM; in data set [3], 20.66 ± 2.91 µM; in data set [4], 66.11 ± 7.54 µM; in data set [5] it was 10.02 ± 3.19 µM; in data set [6], 20.85 ± 3.79 µM. Also, the values for the Km in data set [7] and in data set [8] were 74.07 ± 3.78 µM and 20.08 ± 4.44 µM, respectively.

(Values after publication PMC8226212, “LaPT2 Gene Encodes a Flavonoid Prenyltransferase in White Lupin” (Frontiers in Plant Science, 2021).)
